# Reference: publication PMC10673611 (Molecules, 2023)
# B1: durvalumab-based anti-hPD-L1 IgG4 antibody C5 (antibody, V domains shown)
# VH: EVQLVESGGGLVQPGGSLRLSCAASGFTFSRYWMSWVRQAPGKGLEWVALISRDGSETYYVDSVKGRFTISRDNAKNSLYLQMNSLRAEDTAVYYCAREGGWFGELAFDYWGQGTLVTVSS
# VL: IVLTQSPGTLSLSPGERATLSCKASEDIGTWLAWYQQKPGQAPRLLIYDASSRATGIPDRFSGSGSGTDFTLTISRLEPEDFAVYYCQQYGSLPWTFGQGTKVEIK
# notes: IgG4 heavy chain; IgG4; recombinant human anti-PD-L1 antibody, previously modeled, durvalumab-based; also called C5 antibody; full C5 antibody; source: produced by Recepton, purified (MabSelect Sure, SEC); copies: 2 + 2
# B2: C5M1B, C5 scFv with M1 attached to its C-terminus by a (GGGGS)4 linker (bispecific antibody, V domains shown)
# VH: EVQLVESGGGLVQPGGSLRLSCAASGFTFSRYWMSWVRQAPGKGLEWVALISRDGSETYYVDSVKGRFTISRDNAKNSLYLQMNSLRAEDTAVYYCAREGGWFGELAFDYWGQGTLVTVSS
# VL: IVLTQSPGTLSLSPGERATLSCKASEDIGTWLAWYQQKPGQAPRLLIYDASSRATGIPDRFSGSGSGTDFTLTISRLEPEDFAVYYCQQYGSLPWTFGQGTKVEIK
# notes: linker printed as (GGGGS)4
# B3: C5M1A, asymmetric knob-into-hole C5 IgG4 with one of the Fabs replaced by M1 (bispecific antibody, V domains shown)
# VH: EVQLVESGGGLVQPGGSLRLSCAASGFTFSRYWMSWVRQAPGKGLEWVALISRDGSETYYVDSVKGRFTISRDNAKNSLYLQMNSLRAEDTAVYYCAREGGWFGELAFDYWGQGTLVTVSS
# VL: IVLTQSPGTLSLSPGERATLSCKASEDIGTWLAWYQQKPGQAPRLLIYDASSRATGIPDRFSGSGSGTDFTLTISRLEPEDFAVYYCQQYGSLPWTFGQGTKVEIK
# notes: it replaces one Fab; human IgG4 constant region, hinge and Fc as in the heavy chain of m7, with knob-into-hole mutations; copies: 1 + 1 + 1
# Target: T1, programmed death ligand 1 (PD-L1) (Homo sapiens, UniProt Q9NZQ7)
# T1 construct: human programmed death ligand 1; HEK293 transient, Ni Sepharose and SEC; also called hPD-L1
# Test: ELISA; indirect ELISA; MaxiSorp plates coated with protein overnight at 4 °C, blocked with 1% BSA in PBS, ligands diluted in PBS 1 h at RT, detection with anti-IgG Fc or anti-His-Tag antibody and HRP-streptavidin, TMB; the paper does not say for each pair which partner was coated
# Details: both partners purified
# T1 sequence (Q9NZQ7 19-290): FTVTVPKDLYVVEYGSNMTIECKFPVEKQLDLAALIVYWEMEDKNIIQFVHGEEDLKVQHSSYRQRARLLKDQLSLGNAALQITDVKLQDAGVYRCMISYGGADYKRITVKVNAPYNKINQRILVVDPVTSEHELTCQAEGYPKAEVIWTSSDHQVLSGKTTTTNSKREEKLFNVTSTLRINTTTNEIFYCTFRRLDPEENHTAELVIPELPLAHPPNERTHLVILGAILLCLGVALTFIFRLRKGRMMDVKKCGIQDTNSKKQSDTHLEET
row,Binder,binding result
1,B1,binds
2,B2,binds
3,B3,binds
